The record followed here is publication PMC3630135, “Tenascin C Promiscuously Binds Growth Factors via Its Fifth Fibronectin Type III-Like Domain” (PLoS ONE, 2013).

For orientation: Kd means the equilibrium constant for the complex coming apart. Read a low Kd as tighter binding. For orientation: koff means the first-order rate constant of dissociation. A higher koff goes with fast dissociation. As usually defined, the kon is a measure of how fast the partners come together. A higher kon goes with faster complex formation. By IC50 is commonly meant the concentration that inhibits the measured activity by half. Low readings indicate inhibition by little substance, high ones a need for much substance.

For assay [1], the target named is TNCIII1–5 (first five fibronectin type III-like repeats of human tenascin C, with N-terminal transglutaminase substrate and C-terminal 6xHis tag) (UniProt P24821). The experiment in a line: SPR; Biacore X100; about 450 RU TNCIII1–5 amine-coupled on Sensor Chip C1, BSA on the control channel; growth factors flowed in PBS with 0.1% BSA at 30 µl/min; Langmuir fit. Background: SPR reads the build-up and loss of mass on a sensor chip optically.

The target of assay [2] is Bone morphogenetic protein (BMP)-2 (human) (UniProt P12643). The assay is described as follows: ELISA; as a1 but with 4 µM heparin (40-fold excess over 100 nM TNCIII1-5) during the incubation with TNCIII1-5. (An ELISA detects its analyte on a solid surface through an enzyme-linked reagent.)
Bone morphogenetic protein (BMP)-2 (human), sequence (P12643 283-396): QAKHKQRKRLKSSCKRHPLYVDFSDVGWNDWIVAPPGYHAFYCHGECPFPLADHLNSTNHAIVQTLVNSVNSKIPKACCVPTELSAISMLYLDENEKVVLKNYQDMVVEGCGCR
The next assay addresses neurotrophin-3 (human) (UniProt P20783). Described as above.
Another assay deals with FGF-2 (human) (UniProt P09038). The experiment in a line: ELISA; cross-competition: growth factor (50 nM) coated; 10 nM TNCIII1–5 with full length TNC (0, 0.2, 0.6, 1.9, 5.6, […], 50 nM) in PBST, 1 h RT; TNCIII1–5 detected with HRP-anti-HIS; relative to binding without TNC.
FGF-2 (human), sequence (P09038 143-288): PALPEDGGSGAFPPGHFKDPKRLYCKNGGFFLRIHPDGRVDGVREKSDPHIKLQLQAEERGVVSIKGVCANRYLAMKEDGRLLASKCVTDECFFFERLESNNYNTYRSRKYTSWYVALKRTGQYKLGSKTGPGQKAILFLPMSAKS
Assay [3] deals with Bone morphogenetic protein (BMP)-2 (human) (UniProt P12643). Described as above.
The target in a further assay is T1, GST-TNCIII5 (human, UniProt P24821 983-1074).
T1 construct: tenascin C, fifth TNCIII domain, T983–A1074; source: E. coli BL21, purified (Ni-NTA agarose)
T1 sequence (looked up): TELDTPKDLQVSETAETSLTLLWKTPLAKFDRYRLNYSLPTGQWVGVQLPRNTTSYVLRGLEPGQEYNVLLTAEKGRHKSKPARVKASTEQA
The assay is described as follows: ELISA; GST-TNCIII domains (1 µM in PBS) coated, blocked with 2% BSA; 2 nM PDGF-BB, 1 h RT; detected with anti-PDGF-BB and HRP anti-mouse. To be noted: both partners purified.

In assay [1], TGF-β1 (ligand) showed a Kd of 20.3 nM, a koff of 0.000237 s⁻¹ and a kon of 11700 M⁻¹ s⁻¹.
As for “TNCIII1–5 (first five fibronectin type III-like repeats of human tenascin C, with N-terminal transglutaminase substrate and C-terminal 6xHis tag) (from UniProt P24821 622-1074) (domain or fragment)”, the values for the percent of the original binding retained with 4 µM heparin (in assay [2]; with neurotrophin-3 (human)) were 66% and 57%, respectively.
“full-length native human tenascin C (from UniProt P24821 23-2201) (natural protein)”: in the assay with FGF-2 (human), the concentration for half-maximal inhibition (IC50) is 5.6 nM. In assay [3], this molecule had an IC50 greater than 50 nM and a percent inhibition of TNCIII1–5 binding at 50 nM TNC of 34%.

B1: neurotrophin-3 (ligand)
chain: YAEHKSHRGEYSVCDSESLWVTDKSSAIDIRGHQVTVLGEIKTGNSPVKQYFYETRCKEARPVKNGCRGIDDKHWNSQCKTSQTYVRALTSENNKLVGWRWIRIDTSCVCALSRKIGRT
Consider B1, for which, in assay [1], the Kd worked out at 21 nM, the off-rate constant (koff) is 0.00106 s⁻¹ and the kon came to 50700 M⁻¹ s⁻¹.

B2: PDGF-BB (ligand, human, UniProt P01127 82-190, looked up)
chain: SLGSLTIAEPAMIAECKTRTEVFEISRRLIDRTNANFLVWPPCVEVQRCSGCCNNRNVQCRPTQVQLRPVQVRKIEIVRKKPIFKKATVTLEDHLACKCETVAAARPVT
notes: Two B chains by its name; source: bought: Gibco
Regarding B2, in the assay with GST-TNCIII5, the “fold binding level against TNCIII4” value was 4 fold.
